Test results reported in patent publication US20150344570A1 (published 2015).

T1: FcγRIIa R (human, UniProt P12318 34-217)
T1 construct: extracellular domain; also called FcgRIIa R type; 2aR
T1 sequence (looked up): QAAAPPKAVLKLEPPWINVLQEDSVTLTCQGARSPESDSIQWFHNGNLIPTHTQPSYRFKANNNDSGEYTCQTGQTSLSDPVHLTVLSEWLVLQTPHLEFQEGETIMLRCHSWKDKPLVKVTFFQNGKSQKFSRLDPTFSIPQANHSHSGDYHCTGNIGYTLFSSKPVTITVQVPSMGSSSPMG


What follows are binders tested against T1, FcγRIIa R (assay: SPR (Biacore), captured antibody, FcγR as analyte; relative binding activity).

He/Con_2aR | Binder
106 % (GpH7-A5/GpH7-B3/GpL16-k0 = 100) | GpH7-A5/GpH7-B3 variant K334_10E/GpL16-k0 (antibody, human IgG1, kappa, also called He Ab K334_10E) heavy 1: not shown heavy 2: not shown light: DIVMTQSPLSLPVTPGEPASISCQASESLVHSNRNTYLHWYLQKPGQSPQLLIYKVSNRFSGVPDRFSGSGSGTDFTLKISRVEAEDVGVYYCSQNTHVPPTFGQGTKVEIERTVAAPSVFIFPPSDEQLKSGTASVVCLLNNFYPREAKVQWKVDNALQSGNSQESVTEQDSKDSTYSLSSTLTLSKADYEKHKVYACEVTHQGLSSPVTKSFNRGEC
106 % (GpH7-A5/GpH7-B3/GpL16-k0 = 100) | GpH7-A5/GpH7-B3 variant K334_08L/GpL16-k0 (antibody, human IgG1, kappa, also called He Ab K334_08L) heavy 1: not shown heavy 2: not shown light: DIVMTQSPLSLPVTPGEPASISCQASESLVHSNRNTYLHWYLQKPGQSPQLLIYKVSNRFSGVPDRFSGSGSGTDFTLKISRVEAEDVGVYYCSQNTHVPPTFGQGTKVEIERTVAAPSVFIFPPSDEQLKSGTASVVCLLNNFYPREAKVQWKVDNALQSGNSQESVTEQDSKDSTYSLSSTLTLSKADYEKHKVYACEVTHQGLSSPVTKSFNRGEC
103 % (GpH7-A5/GpH7-B3/GpL16-k0 = 100) | GpH7-A5/GpH7-B3 variant K334_05P/GpL16-k0 (antibody, human IgG1, kappa, also called He Ab K334_05P) heavy 1: not shown heavy 2: not shown light: DIVMTQSPLSLPVTPGEPASISCQASESLVHSNRNTYLHWYLQKPGQSPQLLIYKVSNRFSGVPDRFSGSGSGTDFTLKISRVEAEDVGVYYCSQNTHVPPTFGQGTKVEIERTVAAPSVFIFPPSDEQLKSGTASVVCLLNNFYPREAKVQWKVDNALQSGNSQESVTEQDSKDSTYSLSSTLTLSKADYEKHKVYACEVTHQGLSSPVTKSFNRGEC
110 % (GpH7-A5/GpH7-B3/GpL16-k0 = 100) | GpH7-A5/GpH7-B3 variant K334_04F/GpL16-k0 (antibody, human IgG1, kappa, also called He Ab K334_04F) heavy 1: not shown heavy 2: not shown light: DIVMTQSPLSLPVTPGEPASISCQASESLVHSNRNTYLHWYLQKPGQSPQLLIYKVSNRFSGVPDRFSGSGSGTDFTLKISRVEAEDVGVYYCSQNTHVPPTFGQGTKVEIERTVAAPSVFIFPPSDEQLKSGTASVVCLLNNFYPREAKVQWKVDNALQSGNSQESVTEQDSKDSTYSLSSTLTLSKADYEKHKVYACEVTHQGLSSPVTKSFNRGEC

Second part, the binder before the results:

Binder | He/Con_2aR
GpH7-A5/GpH7-B3 variant H268_11K/GpL16-k0 (antibody, human IgG1, kappa, also called He Ab H268_11K) heavy 1: not shown heavy 2: not shown light: DIVMTQSPLSLPVTPGEPASISCQASESLVHSNRNTYLHWYLQKPGQSPQLLIYKVSNRFSGVPDRFSGSGSGTDFTLKISRVEAEDVGVYYCSQNTHVPPTFGQGTKVEIERTVAAPSVFIFPPSDEQLKSGTASVVCLLNNFYPREAKVQWKVDNALQSGNSQESVTEQDSKDSTYSLSSTLTLSKADYEKHKVYACEVTHQGLSSPVTKSFNRGEC | 100 % (GpH7-A5/GpH7-B3/GpL16-k0 = 100)
GpH7-A5/GpH7-B3 variant K326_07I/GpL16-k0 (antibody, human IgG1, kappa, also called He Ab K326_07I) heavy 1: not shown heavy 2: not shown light: DIVMTQSPLSLPVTPGEPASISCQASESLVHSNRNTYLHWYLQKPGQSPQLLIYKVSNRFSGVPDRFSGSGSGTDFTLKISRVEAEDVGVYYCSQNTHVPPTFGQGTKVEIERTVAAPSVFIFPPSDEQLKSGTASVVCLLNNFYPREAKVQWKVDNALQSGNSQESVTEQDSKDSTYSLSSTLTLSKADYEKHKVYACEVTHQGLSSPVTKSFNRGEC | 147 % (GpH7-A5/GpH7-B3/GpL16-k0 = 100)
GpH7-A5/GpH7-B3 variant I336_08L/GpL16-k0 (antibody, human IgG1, kappa, also called He Ab I336_08L) heavy 1: not shown heavy 2: not shown light: DIVMTQSPLSLPVTPGEPASISCQASESLVHSNRNTYLHWYLQKPGQSPQLLIYKVSNRFSGVPDRFSGSGSGTDFTLKISRVEAEDVGVYYCSQNTHVPPTFGQGTKVEIERTVAAPSVFIFPPSDEQLKSGTASVVCLLNNFYPREAKVQWKVDNALQSGNSQESVTEQDSKDSTYSLSSTLTLSKADYEKHKVYACEVTHQGLSSPVTKSFNRGEC | 110 % (GpH7-A5/GpH7-B3/GpL16-k0 = 100)
GpH7-A5/GpH7-B3 variant I332_06M/GpL16-k0 (antibody, human IgG1, kappa, also called He Ab I332_06M) heavy 1: not shown heavy 2: not shown light: DIVMTQSPLSLPVTPGEPASISCQASESLVHSNRNTYLHWYLQKPGQSPQLLIYKVSNRFSGVPDRFSGSGSGTDFTLKISRVEAEDVGVYYCSQNTHVPPTFGQGTKVEIERTVAAPSVFIFPPSDEQLKSGTASVVCLLNNFYPREAKVQWKVDNALQSGNSQESVTEQDSKDSTYSLSSTLTLSKADYEKHKVYACEVTHQGLSSPVTKSFNRGEC | 109 % (GpH7-A5/GpH7-B3/GpL16-k0 = 100)
GpH7-A5/GpH7-B3 variant K326_15Y/GpL16-k0 (antibody, human IgG1, kappa, also called He Ab K326_15Y) heavy 1: not shown heavy 2: not shown light: DIVMTQSPLSLPVTPGEPASISCQASESLVHSNRNTYLHWYLQKPGQSPQLLIYKVSNRFSGVPDRFSGSGSGTDFTLKISRVEAEDVGVYYCSQNTHVPPTFGQGTKVEIERTVAAPSVFIFPPSDEQLKSGTASVVCLLNNFYPREAKVQWKVDNALQSGNSQESVTEQDSKDSTYSLSSTLTLSKADYEKHKVYACEVTHQGLSSPVTKSFNRGEC | 136 % (GpH7-A5/GpH7-B3/GpL16-k0 = 100)
GpH7-A5/GpH7-B3 variant K326_18N/GpL16-k0 (antibody, human IgG1, kappa, also called He Ab K326_18N) heavy 1: not shown heavy 2: not shown light: DIVMTQSPLSLPVTPGEPASISCQASESLVHSNRNTYLHWYLQKPGQSPQLLIYKVSNRFSGVPDRFSGSGSGTDFTLKISRVEAEDVGVYYCSQNTHVPPTFGQGTKVEIERTVAAPSVFIFPPSDEQLKSGTASVVCLLNNFYPREAKVQWKVDNALQSGNSQESVTEQDSKDSTYSLSSTLTLSKADYEKHKVYACEVTHQGLSSPVTKSFNRGEC | 115 % (GpH7-A5/GpH7-B3/GpL16-k0 = 100)
GpH7-A5/GpH7-B3 variant K326_04F/GpL16-k0 (antibody, human IgG1, kappa, also called He Ab K326_04F) heavy 1: not shown heavy 2: not shown light: DIVMTQSPLSLPVTPGEPASISCQASESLVHSNRNTYLHWYLQKPGQSPQLLIYKVSNRFSGVPDRFSGSGSGTDFTLKISRVEAEDVGVYYCSQNTHVPPTFGQGTKVEIERTVAAPSVFIFPPSDEQLKSGTASVVCLLNNFYPREAKVQWKVDNALQSGNSQESVTEQDSKDSTYSLSSTLTLSKADYEKHKVYACEVTHQGLSSPVTKSFNRGEC | 135 % (GpH7-A5/GpH7-B3/GpL16-k0 = 100)
